{"source": "patent US20190262327A1", "about": "“COMBINATION OF A BACE INHIBITOR AND AN ANTIBODY OR ANTIGEN-BINDING FRAGMENT FOR THE TREATMENT OF A DISORDER ASSOCIATED WITH THE ACCUMULATION OF AMYLOID BETA” (ASTRAZENECA AB, priority 2016, published 2019)", "key": {"Aβ1-42 aggregate": {"target": "T1, Aβ1-42 aggregate (Homo sapiens, UniProt P05067)", "T1 construct": "non-cross-linked A[…] 1-42 aggregate", "T1 sequence (P05067 672-713 limits assumed)": "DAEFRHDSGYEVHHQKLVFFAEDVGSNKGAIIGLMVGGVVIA", "experiment": "Western blot of Abeta 42 aggregate preparation (PICUP and non PICUP)", "assay_type": "binding", "conditions": "primary antibody 2 ug/ml; non PICUP and PICUP Aβ42 aggregate", "experimental": "To cross-link the A042 oligomers before SDS-PAGE, PICUP (photo-induced cross-linking of peptides) was carried out as follows. A 1 mM solution of Ru(Bpy) was created by adding 2 μl of stock (at 10 mM) to 18 μl of 1×PBS. In addition, a 20 mM solution of ammonium persulphate (APS) was created by adding […] of stock (at 200 mM) to 18 μl of 1×PBS. Unused stock was immediately snap-frozen on dry ice and returned to the −80° C. freezer. In the dark room, 5 μl of Ru(Bpy) was added to 80 μl of aggregate (neat 10 uM sample), followed by 5 μl of APS. Samples were irradiated with a lamp in the dark room for 10 secs. 30 uls of (4×) LDS Sample buffer was added immediately.\nSDS-PAGE was then performed on cross-linked (PICUP) and non-cross-linked A[…] 1-42 aggregate. The solutions were incubated in a hot block at 70° C. for 10 minutes. Meanwhile, a marker was created by combining 5 μl of Magic Mark XP Western Protein Standard, 5 μl of Novex Sharp Pre-stained Protein Standard. After the ten-minute incubation, the samples plus marker were loaded onto a NuPAGE Novex 4-12% Bis-Tris Gels (1.0 mm, 15 well, 15 μl per well) with MES running buffer. The gels were run at 200 V for 35 minutes. […]\nDuring the final washes, the chemi-luminescence SuperSignal West Dura substrate (Thermo Scientific; 34075) were allowed to warm to room temperature. […]"}, "Amyloid beta plaques": {"test_system": "Amyloid beta plaques", "experiment": "In vivo binding to Amyloid beta plaques in aged Tg2576 mice (immunohistochemistry)", "set-up": "species or system mouse", "conditions": "168 hours after single i.v. dose of 10 or 30 mg/kg", "experimental": "Abet0380-GL IgG1-TM was tested for its ability to bind to Amyloid beta plaques in aged Tg2576 mice after a single peripheral dose. Animal experimentations were performed in accordance with relevant guidelines and regulations provided by the Swedish Board of Agriculture. The ethical permission was provided by an ethical board specialized in animal experimentations: the Stockholm Sodra Animal Research Ethical Board. Seventeen-month old female Tg2576 mice (n=5) received a single dose of vehicle, a positive control antibody at 30 mg/kg or the Abet0380-GL IgG1-TM antibody at 10 or 30 mg/kg by intravenous injection with a dosing vehicle of 25 mM Histidine, 7% Sucrose, 0.02% p80 surfactant, pH 6.0 at 5 mL/kg. At 168 hours after dose, animals were deeply anaesthetized and perfused with room temperature PBS followed by cold (4° C.) phosphate buffered 4% paraformaldehyde (PFA). Animals were then sacrificed by decapitation and brains were dissected and immersions fix in PFA at 4° C. for 72 hours. The fixative was exchanged to PBS containing 0.1% sodium azide and tissues were stored at 4° C. until further processed. […]\nScoring of the staining was carried out in a blinded fashion under 10× optical magnification. […] The intensity of plaque labelling was scored according to a relative intensity scale from 0 (no staining of plaques) up to 4 (intense decoration of plaques)."}}, "note": "Entries after “also recorded” stand apart in the source; their conditions may differ.", "data": [{"molecule": "Abet0380-GL IgG1-TM: germlined Abet0380; VH SEQ ID NO: 524, VL SEQ ID NO: 533; human IgG1 triple mutant format (antibody, listed as Homo sapiens, V domains shown, human IgG1 triple mutant constant region; /note=“Abet0380-GL”, germlined Abet0380; human IgG1 triple mutant format) VH: EVQLLESGGGLVQPGGSLRLSCAASMGNFNYQTMWWVRQAPGKGLEWVSVIGKTNENIAYADSVKGRFTISRDNSKNTLYLQMNSLRAEDTAVYYCAREWMDHSRPYYYYGMDVWGQGTLVTVSS VL: SYELTQPPSVSVSPGQTASITCSGHNLEDKFASWYQQKPGQSPVLVIYRDDKRPSGIPERFSASNSGHTATLTISGTQAMDEADYYCSSQDTVTRVFGGGTKLTVL", "values": [{"measurement": "Abeta42 recognition profile by Western blot", "setting": "Aβ1-42 aggregate", "value": "specifically recognises Aβ1-42 monomer and low n oligomer species up to and including pentamer"}, {"measurement": "in vivo decoration of Amyloid beta plaques or CAA", "setting": "Amyloid beta plaques", "value": "did not decorate; also recorded: does not show any in vivo plaque decoration"}]}]}
